“And” between values parts separate entries of the source, which are not always exact repeats. Identical values can stand only once. Like-named read-outs stand apart in the source and are kept apart here.
T1: endogenous IL-10 receptors of MC/9 cells (mouse mast cell line) (mouse, UniProt Q61727 17-575)
T1 sequence (looked up): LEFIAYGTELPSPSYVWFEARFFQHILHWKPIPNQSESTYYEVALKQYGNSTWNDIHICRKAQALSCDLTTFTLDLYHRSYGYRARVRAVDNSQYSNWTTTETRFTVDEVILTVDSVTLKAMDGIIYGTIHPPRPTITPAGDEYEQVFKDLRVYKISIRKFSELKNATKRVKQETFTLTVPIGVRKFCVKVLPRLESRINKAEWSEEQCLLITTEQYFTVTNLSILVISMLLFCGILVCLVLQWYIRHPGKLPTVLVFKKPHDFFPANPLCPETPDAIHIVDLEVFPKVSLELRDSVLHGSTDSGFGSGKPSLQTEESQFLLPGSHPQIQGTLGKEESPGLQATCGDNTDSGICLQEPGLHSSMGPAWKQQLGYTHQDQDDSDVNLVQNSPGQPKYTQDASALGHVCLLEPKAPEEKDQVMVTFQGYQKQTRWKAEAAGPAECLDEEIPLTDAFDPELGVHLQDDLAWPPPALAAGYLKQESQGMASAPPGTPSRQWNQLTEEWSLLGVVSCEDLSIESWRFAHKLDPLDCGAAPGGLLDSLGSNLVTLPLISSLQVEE

B1: IL-10 wild type (mature wild type human IL-10) (ligand)
chain: SPGQGTQSENSCTHFPGNLPNMLRDLRDAFSRVKTFFQMKDQLDNLLLKESLLEDFKGYLGCQALSEMIQFYLEEVMPQAENQDPDIKAHVNSLGENLKTLRLRLRRCHRFLPCENKSKAVEQVKNAFNKLQEKGIYKAMSEFDIFINYIEAYMTMKIRN
B2: 5K PEG-hIL-10 wt (ligand)
chain: B1 chain
modifications: N-terminal PEGylation with 5K PEG
B3: 10K PEG-hIL-10 wt (ligand)
chain: B1 chain
modifications: N-terminal PEGylation with 10K PEG

Columns and labels:
Experiment in all cases: cell-based or functional assay
[1] = target: T1, endogenous IL-10 receptors of MC/9 …
[2] = target: T1, endogenous IL-10 receptors of MC/9 …; remark: listed apart in the source
[3] = target: T1, endogenous IL-10 receptors of MC/9 …; remark: listed apart in the source
[4] = target: T1, endogenous IL-10 receptors of MC/9 …; remark: listed apart in the source

Binder | EC50 (ng/ml), MC/9 proliferation assay [1] [ng/mL] | EC50 (ng/ml), MC/9 proliferation assay [2] [ng/mL] | EC50 (ng/ml), MC/9 proliferation assay [3] [ng/mL] | EC50 (ng/ml), MC/9 proliferation assay [4]
B1 | 0.14 | 0.42 | 1 | 0.303 ng/mL and 0.105 ng/mL
B2 | 4.76 |  |  | 
B3 | 21.8 |  |  | 

— US20220009986A1 (AMBRX, published 2022)
